The target in this assay is T1, peptide CRTEEENLRKKGEPHH (SEQ ID NO: 2) conjugated with BSA (human, also: conjugated with BSA by the glutaraldehyde method).
T1 construct: 16-residue immunogen derived from human p53 282-297, with Cys in place of the first Arg; ELISA plates were coated with 'the antigen'; also called the antigen; peptide used as antigen
T1 peptide: CRTEEENLRKKGEPHH
The assay can be described thus: ELISA, plate coated with the antigen, hybridoma supernatant dilutions. How it is done: The animals' splenocytes were fused with mouse myeloma cells (SP2/O cell line). The fusion products were subjected to screening against the antigen to select the antibody-producing clones. The growth of these clones was continued. This first screening was performed by ELISA methodology. The positive clones were labeled as “parental clones” and frozen after 3 passages. An antigen coating was created onto ELISA plates, and successively the fusion product supernatant was added. The serum of the immunized animals was used as a positive control in ELISA (Example 2).
After the fusion between the splenocytes of the mouse with the best antibody titer and mouse myeloma cells, an ELISA assay was performed to evaluate the fusion products. A coating with the antigen was created in a 96-well ELISA plate and serial dilutions of the supernatant from various clones were added to each well to evaluate their antibody production by spectrophotometric reading. The clones with the highest optical density at 450 nm (OD₄₅₀ₙₘ) were transferred to 24-well plates and after their growth the ELISA assay was repeated, the clones with the highest antibody production were transferred to 6-well plates, grown and tested again by ELISA. The procedure was repeated also for the clones transferred to culture flasks.

Where no end group is shown, it is not given here.

B1: 2D3A8 antibody (antibody)
heavy: EVQLQQSGPELVKPGASVKMSCKASGYTFTSYVMHWVKQKPGQGLEWIGYINPYNDGTKYNEKFKGKATLTSDKSSSTAYMELSSLTSEDSAVYYCARGGYYAMDYWGQGTSVTVSSESQSFPNVFPLVSCESPLSDKNLVAMGCLARDFLPSTISFTWNYQNNTEVIQGIRTFPTLRTGGKYLATSQVLLSPKSILEGSDEYLVCKIHYGGKNRDLHVPIPAVAEMNPNVNVFVPPRDGFSGPAPRKSKLICEATNFTPKPITVSWLKDGKLVESGFTTDPVTIENKGSTPQTYKVISTLTISEIDWLNLNVYTCRVDHRGLTFLKNVSSTCAASPSTDILTFTIPPSFADIFLSKSANLTCLVSNLATYETLNISWASQSGEPLETKIKIMESHPNGTFSAKGVASVCVEDWNNRKEFVCTVTHRDLPSPQKKFISKPNEVHKHPPAVYLLPPAREQLNLRESATVTCLVKGFSPADISVQWLQRGQLLPQEKYVTSAPMPEPGAPGFYFTHSILTVTEEEWNSGETYTCVVGHEALPHLVTERTVDKSTGKPTLYNVSLIMSDTGGTCY
light: DIQMTQTTSSLSASLGDRVTISCRASQDISNYLNWYQQKPDGTVKLLIYYTSRLHSGVPSRFSGSGSGTDYSLTISNLEQEDIATYFCQQGNTLPYTFGGGTKLEIKRADAAPTVSIFPPSSEQLTSGGASVVCFLNNFYPKDINVKWKIDGSERQNGVLNSWTDQDSKDSTYSMSSTLTLTKDEYERHNSYTCEATHKTSTSPIVKSFNRNEC
notes: Mouse monoclonal from a hybridoma, purified from the clone's supernatant; also called clone 2D3A8
On to B1, for which the binding result is listed as “binds”.

The record behind these values is patent US20240124565A1 (DIADEM S R L, published 2024).
